From US20090253622A1, “USE OF TLR3 AGONISTS FOR THE TREATMENT OF NEURODEGENERATIVE DISORDERS” (Nederlandse Organisatie voor toegepast - …, priority 2006, published 2009)
“Also recorded” adds a separate entry of the source.

Experiments:
Assay type in all cases: cell-based
TLR3 [1] = experiment: CXCL8 release by cultured human astrocytes (ELISA)
Experimental: Cos-7 cells (25,000 cells per well in 96-well plates) were transfected for 5 h with 768 pools of cDNA derived from human brain tumours (5 pooled tumours including meningioma, oligodendroglioma, astrocytoma grades II and IV, and medulloblastoma; NCI CGAP Brn35; Invitrogen) using lipofectamine, after which cells were thoroughly washed. Transfection with green-fluorescent protein-encoding cDNA was used as an internal control for transfection efficiencies. After continued culture of the transfected cells for 48 h, 75 μL of each culture supernatant was harvested and added to cultured human astrocytes seeded at 1,000 cells per well in 75 μL. After 48 h of culture, supernatants were harvested and evaluated for CXCL8 release using ELISA. Stimulation of astrocytes with poly I:C served as positive controls for CXCL8 release in all cases, non-transfected Cos 7 culture supernatants as negative controls.
Purified recombinant stathmin was exposed to two different conditions that differentially affect the extent of helix formation within the protein chain. One part of the protein preparation was exposed to 5% trifluoroacetic acid (TFA) in water for 1 h at 37° C., strongly acidic conditions that tend to disrupt an alpha helix. In parallel, another part was exposed for 1 h at 37° C. to 5% of the helix-promoting solvent trifluoroethanol (TFE) in phosphate-buffered saline (PBS). After exposure to these different conditions, both protein samples were extensively dialysed for 48 h against several changes of PBS. Next, the samples were analyzed by […] circular dichroism spectroscopy that allows calculation of helical content on the basis of elipticity in the absorption of circularly polarized light. In both cases, another part of the dialyzed sample was tested in parallel for induction of TLR3-mediated release of CXCL8 (IL-8) in human astrocytes as described elsewhere in this application.

TLR2 = molecular target: T1, TLR2 (Homo sapiens, UniProt O60603); experiment: HEK293 transfectant cells, TLR2 activation; settings: at levels of at least 50 μg/mL
T1 construct: expressed in transfected cells; host or cells: HEK293
Experimental: (§1) Additional control experiments using murine astrocytes or transfected HEK293 cells were performed essentially as described previously by several other research groups.

TLR4 = molecular target: T2, TLR4 (Homo sapiens, UniProt O00206+Q9Y6Y9); experiment: HEK293 transfectant cells, TLR4 activation; settings: at levels of at least 50 μg/mL
T2 construct: expressed in transfected cells; host or cells: HEK293
Experimental: as §1

TLR3 [2] = experiment: IL-6 release by astrocytes from wild-type mice (ELISA); settings: wild-type mouse astrocytes, 48 h
Experimental: (§2) Astrocytes were cultured in poly L-lysine coated 96 well-flat-bottom plates at 1×10^4 cells per well in 100 l DMEM/HAM-F10 medium containing 10% FCS and antibiotic supplements for 24 h to obtain post-confluent cultures. Recombinant human stathmin was next added to astrocytes, and parallel control stimuli were performed with either poly I:C, an established TLR3 agonist, or ultrapure lipopolysaccharides, established TLR4 agonists. After addition of these stimuli astrocytes were incubated for another 48 h. Astrocyte culture supernatants were subsequently collected and using a commercial ELISA kit levels of IL-6 were determined, as a marker for TLR-mediated activation of murine astrocytes.

[3] = system: astrocytes from TLR3-deficient mice; experiment: IL-6 release by astrocytes from TLR3-deficient mice (ELISA); settings: TLR3-deficient mouse astrocytes, 48 h
Experimental: as §2

[4] = system: peripheral blood mononuclear cells (PBMC); experiment: CXCL8 accumulation in culture of human PBMC; settings: 24 h, varying doses, two donors
Excerpt: (§3) Peripheral blood mononuclear cells (PBMC) were isolated from two healthy blood donors and from part of the cells, CD14^+ monocytes were isolated by positive selection using magnetic beads coated with an antibody against CD14. The purified CD14^+ monocytes were subsequently cultured for 5 days in the presence of IL-4 and granulocyte-macrophage colony stimulating factor (GM-CSF). These growth factors induce differentiation of monocytes into pre-dendritic cells (pre-DC) within this time frame. At this stage part of the pre-DC culture was stimulated with a mixture of IL-1β and TNF-α for another 2 days in culture, thus stimulating final maturation of the cells into plasmacytoid dendritic cells (DC).
(§4) Using this differentiation method, separate populations of PBMC, pre-DC and DC were generated and after washing of the cells to remove all previously used stimuli, cells were subsequently re-cultured in fresh medium and tested for their response to either poly I:C, stathmin or LPS. Accumulation of CXCL8 in the culture medium over a 24-h period was used as a measure for cellular activation.

[5] = system: pre-dendritic cells (pre-DC); experiment: CXCL8 accumulation in culture of human pre-dendritic cells; settings: 24 h, varying doses, two donors
Excerpt: as §3, §4

[6] = system: plasmacytoid dendritic cells (DC); experiment: CXCL8 accumulation in culture of human mature plasmacytoid dendritic cells; settings: 24 h, varying doses, two donors
Excerpt: as §3, §4

human microglia = experiment: CXCL8 accumulation in cultures of human microglia (ELISA); settings: microglia from gray or white matter, 24 h
Experimental: Using either gray matter samples or white matter samples of post mortem adult human brains collected within 9 h after death, several cultures of microglia were produced as previously described. Microglia were subsequently stimulated with different TLR agonists and after 24 h accumulation of CXCL8 in the culture medium was quantified using a commercial ELISA assay, as a measure of TLR-mediated activation.

T1 sequence (O60603 21-784, species assumed): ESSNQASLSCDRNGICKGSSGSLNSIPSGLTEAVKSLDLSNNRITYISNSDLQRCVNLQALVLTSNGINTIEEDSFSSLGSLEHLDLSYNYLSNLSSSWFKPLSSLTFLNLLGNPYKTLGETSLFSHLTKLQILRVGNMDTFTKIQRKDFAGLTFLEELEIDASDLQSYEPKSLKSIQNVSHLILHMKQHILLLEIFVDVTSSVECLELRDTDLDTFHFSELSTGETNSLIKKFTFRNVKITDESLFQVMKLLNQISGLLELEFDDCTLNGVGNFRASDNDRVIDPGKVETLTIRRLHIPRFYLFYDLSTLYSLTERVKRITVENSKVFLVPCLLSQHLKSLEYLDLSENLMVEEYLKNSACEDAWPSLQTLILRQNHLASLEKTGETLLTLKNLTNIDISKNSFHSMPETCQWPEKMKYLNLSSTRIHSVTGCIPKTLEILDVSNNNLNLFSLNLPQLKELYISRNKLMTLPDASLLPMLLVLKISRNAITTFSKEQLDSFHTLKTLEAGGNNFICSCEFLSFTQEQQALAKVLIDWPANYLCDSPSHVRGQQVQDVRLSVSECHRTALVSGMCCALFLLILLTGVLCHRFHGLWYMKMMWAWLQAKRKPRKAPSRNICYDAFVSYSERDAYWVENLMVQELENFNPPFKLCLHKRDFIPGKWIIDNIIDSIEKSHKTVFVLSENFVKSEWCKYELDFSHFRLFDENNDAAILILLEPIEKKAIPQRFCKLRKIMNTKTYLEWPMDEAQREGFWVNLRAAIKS
T2 sequence (O00206 24-839, species assumed): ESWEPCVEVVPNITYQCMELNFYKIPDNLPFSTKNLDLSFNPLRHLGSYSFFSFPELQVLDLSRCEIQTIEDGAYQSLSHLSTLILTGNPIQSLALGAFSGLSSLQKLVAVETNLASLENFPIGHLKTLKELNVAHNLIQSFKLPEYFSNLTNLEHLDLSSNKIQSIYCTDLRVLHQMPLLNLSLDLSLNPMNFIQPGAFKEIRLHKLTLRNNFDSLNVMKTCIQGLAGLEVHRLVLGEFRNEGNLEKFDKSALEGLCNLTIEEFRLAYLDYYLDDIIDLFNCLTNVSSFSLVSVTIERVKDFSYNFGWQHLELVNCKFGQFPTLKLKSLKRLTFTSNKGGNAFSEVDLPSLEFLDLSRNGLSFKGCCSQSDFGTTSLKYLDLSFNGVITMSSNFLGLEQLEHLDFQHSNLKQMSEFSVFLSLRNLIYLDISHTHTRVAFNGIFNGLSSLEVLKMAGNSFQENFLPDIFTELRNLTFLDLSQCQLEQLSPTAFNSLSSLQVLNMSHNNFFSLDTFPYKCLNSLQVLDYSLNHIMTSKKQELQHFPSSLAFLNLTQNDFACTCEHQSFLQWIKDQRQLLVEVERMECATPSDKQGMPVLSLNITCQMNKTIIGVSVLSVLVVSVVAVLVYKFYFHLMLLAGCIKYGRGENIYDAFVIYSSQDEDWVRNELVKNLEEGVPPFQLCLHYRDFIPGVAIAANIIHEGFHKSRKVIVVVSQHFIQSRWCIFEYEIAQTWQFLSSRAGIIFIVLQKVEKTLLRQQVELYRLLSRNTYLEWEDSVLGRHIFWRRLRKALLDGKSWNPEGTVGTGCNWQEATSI
T2 sequence (Q9Y6Y9 17-160 limits assumed, species assumed): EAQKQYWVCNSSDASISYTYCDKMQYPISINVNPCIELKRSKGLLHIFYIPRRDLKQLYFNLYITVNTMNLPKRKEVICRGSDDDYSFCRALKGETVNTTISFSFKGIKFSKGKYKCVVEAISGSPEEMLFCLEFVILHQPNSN

B1: stathmin: cytosolic phosphoprotein of 149 amino acids (SEQ ID NO: 1); purified recombinant human stathmin from a commercial source (protein)
chain: MASSDIQVKELEKRASGQAFELILSPRSKESVPEFPLSPPKKKDFSLEEIQKKLEAAEERRKSHEAEVLKQLAEKREHEKEVLQKAIEENNNFSKMAEEKITHKMEANKENREAQMAAKLERLREKDKHIEEVRKNKESKDPADETEAD
modifications: Human; (44)..(138) Stathmin-like alpha helix domain
notes: purified recombinant human stathmin from a commercial source
astrocyte CXCL8 response, dose dependence (TLR3 [1]; at 100 μg/mL): still not maximal
CXCL8 release by cultured human astrocytes (in words) (TLR3 [1]; doses between 5 and 100 μg/mL, four donors): marked CXCL8 release
stathmin-induced response under TLR3-directed small interfering RNA (TLR3 [1]; human astrocytes, three TLR3 siRNAs): largely—in one case completely—inhibited
response of HEK293 transfectant cells via TLR2 (TLR2): does not contain any endotoxin contaminants that trigger responses
response of HEK293 transfectant cells via TLR4 (TLR4): does not contain any endotoxin contaminants that trigger responses
IL-6 release (TLR3 [2]): dose-dependent IL-6 induction; also recorded: marked IL-6 release
IL-6 release [3]: completely absent; also recorded: fully abrogated
CXCL8 accumulation in the culture medium [4]: substantial increase in CXCL8 accumulation
CXCL8 accumulation in the culture medium [5]: substantial increase in CXCL8 accumulation
CXCL8 accumulation in the culture medium [6]: substantial increase in CXCL8 accumulation
CXCL8 accumulation in the culture medium (human microglia): enhanced CXCL8 accumulation
